Laboratory results reported in paper PMC12136220.
Where “and” joins values, the source holds several entries; their conditions need not be identical. Equal entries are not always repeated.

Legend:
[1] = target: human recombinant Hsp60 (human) (UniProt P10809)
[2] = target: Listeria adhesion protein (LAP) (Listeria monocytogenes); assay: cryo-EM structure; LAP alone, 1.2 mg/ml, Titan Krios 300 kV with K3 detector, cryoSPARC
[3] = target: human recombinant Hsp60 (human) (UniProt P10809); remark: listed apart in the source
[4] = target: Listeria adhesion protein (LAP) (Listeria monocytogenes); assay: cryo-EM structure; purified LAP mixed with Hsp60 at 2:1, incubated 4 h at 4°C; Titan Krios 300 kV with K3 detector, cryoSPARC; LAP-Hsp60 map refined in C1, Hsp60 alone in C7, LAP dimer in C2

Chain of human recombinant Hsp60 (human) (P10809 27-573): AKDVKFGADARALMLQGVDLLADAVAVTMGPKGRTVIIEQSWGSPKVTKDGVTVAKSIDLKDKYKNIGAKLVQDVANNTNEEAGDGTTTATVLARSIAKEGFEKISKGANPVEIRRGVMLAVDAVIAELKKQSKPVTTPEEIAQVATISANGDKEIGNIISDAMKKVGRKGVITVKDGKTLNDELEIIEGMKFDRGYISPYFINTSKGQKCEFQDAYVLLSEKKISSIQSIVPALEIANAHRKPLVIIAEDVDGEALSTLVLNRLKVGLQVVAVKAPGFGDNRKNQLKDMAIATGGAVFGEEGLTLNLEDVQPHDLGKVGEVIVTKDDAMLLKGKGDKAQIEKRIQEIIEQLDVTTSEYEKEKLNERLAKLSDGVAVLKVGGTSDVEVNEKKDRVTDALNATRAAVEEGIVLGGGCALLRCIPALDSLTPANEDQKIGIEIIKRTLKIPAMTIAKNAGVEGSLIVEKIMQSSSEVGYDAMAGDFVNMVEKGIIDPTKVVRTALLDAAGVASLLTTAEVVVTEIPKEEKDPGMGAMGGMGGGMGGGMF

Substance	FD4 (FITC 4-kDa dextran) permeability through Caco-2 monolayers after 1 h, LAP 0.01-5 μg/mL [1]	stoichiometry N [2]	FD4 paracellular flux through Caco-2 monolayers in 1 h, relative to PBS control [3]	stoichiometry N [4]	decrease of TEER of Caco-2 monolayers in 1 h, relative to full-length LAP (100%) [3]
Listeria adhesion protein (LAP) (natural protein)	80%	2 and 4	264%	4 and 2	–
N1 subdomain of LAP (domain or fragment)	–	–	133%	–	78%
N2 subdomain of LAP (domain or fragment)	–	–	149%	–	96%
